Laboratory results published in article PMC4234381, “Evolution of Acyl-Substrate Recognition by a Family of Acyl-Homoserine Lactone Synthases” (PLoS ONE, 2014).

Assays:
[1] = biological target: Sfp (Bacillus subtilis, UniProt P39135); test: enzymatic transfer of octyl-phosphopantetheine to apo-ACP, mass spectrum of product; format: biochemical; settings: co-substrate E. coli apo-AcpP; preparative synthesis, 20:1 acyl-CoA to ACP
[2] = biological target: BjaI (Bradyrhizobium diazoefficiens, UniProt Q89VI2); test: DCPIP microplate assay
[3] = substrate: CC(C)CC(=O)SCCNC(=O)CCNC(=O)[C@H](O)C(C)(C)COP(=O)(O)OP(=O)(O)OC[C@H]1O[C@@H](n2cnc3c(N)ncnc32)[C@H](O)[C@@H]1OP(=O)(O)O; test: purified protein; settings: 500 µM SAM, 1 µM BjaI, HEPES, final pH 7.3
[4] = substrate: C[S+](CC[C@H](N)C(=O)O)C[C@H]1O[C@@H](n2cnc3c(N)ncnc32)[C@H](O)[C@@H]1O; test: purified protein; settings: 250 µM isovaleryl-CoA, HEPES, final pH 7.3

Chain of Sfp (P39135 whole entry): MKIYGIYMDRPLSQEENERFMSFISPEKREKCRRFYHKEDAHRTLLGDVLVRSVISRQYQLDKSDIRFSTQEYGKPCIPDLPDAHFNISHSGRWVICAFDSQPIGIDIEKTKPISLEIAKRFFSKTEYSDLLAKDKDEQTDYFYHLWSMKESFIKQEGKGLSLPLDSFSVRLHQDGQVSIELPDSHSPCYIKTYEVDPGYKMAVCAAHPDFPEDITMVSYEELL

**Q.** Which “enzymatic transfer of octyl-phosphopantetheine to apo-ACP, mass spectrum of prod” value [1] does the source give for `CCCCCCCCSCCNC(=O)CCNC(=O)[C@H](O)C(C)(C)COP(=O)(O)OP(=O)(O)OC[C@H]1O[C@@H](n2cnc3c(N)ncnc32)[C@H](O)[C@@H]1OP(=O)(O)O` [octyl-CoA sulfide] here?
**A.** Its value is “enzymatic transfer of the alkyl-PPant to apo-ACP using Bacillus subtilis Sfp PPant transferase”.

**Q.** With `CC(C)CCSCCNC(=O)CCNC(=O)[C@H](O)C(C)(C)COP(=O)(O)OP(=O)(O)OC[C@H]1O[C@@H](n2cnc3c(N)ncnc32)[C@H](O)[C@@H]1OP(=O)(O)O` [isopentyl-CoA] as the molecule, how does the Ki [2] read?
**A.** The Ki was 21 ± 1 µM.

B1: BjaI (Bradyrhizobium diazoefficiens USDA 110) (protein)
chain: MIHAISAVNRHLYEDVLEQHFRLRHDIFVEERHWETLRRPDGREVDSYDDEDTVYLLALEGRRVVGGHRLYPTTKPSMMSEVFPHLAAVRGCPSDPLIWEWSRYFVVRDRRDGALNLQLMAAVQEFCLDQGIAQVSAIMETWWLPRFHEAGFVVTPLGLPALVENAWTMAATVDIRRQTLDVLHDRIGMPSIVQQDGPRLDAVARANLCGLAAAQRKSA
**Q.** How did the Km [3] turn out when B1 was run?
**A.** The Km was 7.0 ± 0.5 µM.

**Q.** And the kcat [3]?
**A.** The kcat was 0.021 ± 0.03 s⁻¹.

**Q.** And the kcat/Km [3]?
**A.** Its kcat/Km is 3000 M⁻¹ s⁻¹.

**Q.** What about the Km [4] of the same molecule?
**A.** The Km was 39 ± 4 µM.
